The test deals with SARS-CoV2 S蛋白受体结合域(RBD) (SARS-CoV2, UniProt P0DTC2 319-541).

B1: 单克隆抗体YK-CoV2-02的Fab (Fab, V domains shown)
VH: QVQLVESGGGLIQPGGSLRLSCAVSGFTVSSNYMSWVRQAPGKGLEWVSVIYPGGSTFYADSVKGRFTISRDNDNSKNTLYLQMNSLRAEDTAVYYCARDWVRGSNWGQGTLVTVSS
VL: EIVLTQSPATLSLSPGERATLSCRASQSVSNYLAWYQQKPGQAPRLLIYDASNRATGIPARFSGSGSGTDFTLTISSLEPEDFAVYYCQERSNWPSGTFGPGTKVDIK
One may read the Kd as the free concentration of one partner at which half of the binding sites on the other are occupied at equilibrium, for simple one-to-one binding. The low end stands for a tighter complex, the high end for a looser complex. Consider B1, for which the Kd was 4.03 nM.

The record behind these values is patent CN112794898A (YIKANG BIOLOGY SUZHOU CO LTD, dated 2021).
